Results from US20220305006A1, “COMPOSITIONS AND METHODS FOR THE TREATMENT OF NEUROLOGICAL DISEASES AND DISORDERS” (The Regents of the University of California, priority 2019, published 2022).

Molecular target: BACE1 structure PDB ID: 1XN3 after removal of BACE inhibitor 1 (apo model used in silico) (UniProt P56817)
Assay: computed, not measured: MMPBSA (AMBER) on 10000 snapshots of a 50 ns molecular dynamics run

Chain of BACE1 structure PDB ID: 1XN3 after removal of BACE inhibitor 1 (apo model used in silico) (P56817 58-446 limits assumed): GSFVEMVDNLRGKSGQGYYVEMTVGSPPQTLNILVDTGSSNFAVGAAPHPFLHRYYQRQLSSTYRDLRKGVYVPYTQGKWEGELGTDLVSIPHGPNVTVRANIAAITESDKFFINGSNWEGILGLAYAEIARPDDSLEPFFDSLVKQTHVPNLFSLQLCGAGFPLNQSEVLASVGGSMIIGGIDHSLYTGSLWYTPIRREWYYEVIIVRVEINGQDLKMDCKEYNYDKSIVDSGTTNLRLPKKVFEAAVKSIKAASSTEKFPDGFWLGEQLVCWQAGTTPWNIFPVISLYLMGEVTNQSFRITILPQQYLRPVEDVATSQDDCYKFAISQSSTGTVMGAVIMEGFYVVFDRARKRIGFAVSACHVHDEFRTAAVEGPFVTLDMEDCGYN

Row | BACE Binding ΔG | Binder
1 | -189 kJ/mol | Ac-ALYPYFLPISAK-NH2 [Peptide 65007]
2 | -106 kJ/mol | Ac-NLTTYPYFIPL-NH2 [Peptide 65005]
